Measurements reported in patent publication US20200283523A1 (WUXI BIOLOGICS IRELAND, published 2020).

Legend:
human CD3 = molecular target: T1, human CD3 (human, UniProt P07766 23-207); experiment: flow cytometry affinity on Jurkat cells, bound/free versus bound plot; Jurkat cells, CD3
T1 construct: whole, on cells; On cells CD3 stands as the full CD3/TCR complex; also called CD3 on Jurkat cells
Procedure: Binding affinity to CD3 and CD19 was determined by flow cytometry using Jurkat and Ramos cells, respectively. The cells were transferred in to 96-well U-bottom plates (BD) at a density of 5×10⁴ cells/well. Antibodies to be tested were 1:2-fold serially diluted in 1% 1×PBS/1% BSA and incubated with cells at 4° C. for 1 hr. Then, the plates were centrifuged at 1500 rpm for 4 mins and the supernatant discarded. The secondary antibody, Alexa647 conjugated goat anti-human IgG Fc (Jackson, Cat #109-605-098) or FITC conjugated goat anti-His (Bethyl, Cat # A190-113F) was added to re-suspended cells and incubated at 4° C. in the dark for 30 min. The cells were washed once and re-suspended in 100 μL 1×PBS/1% BSA. Fluorescence intensity was measured by flow cytometry (BD Canto II) and analyzed by FlowJo. Fluorescence intensity was converted to bound molecules/cell based on the quantitative beads (Quantum™ MESF Kits, Bangs Laboratories). KD was calculated by Graphpad Prism5.
The binding affinity of W3438-T3U4.E17-1.uIgG4.SP to human CD19 and CD3 was tested on Ramos and Jurkat cells by flow cytometry. The bound IgG/free IgG versus bound IgG was plotted in FIGS. 14A-14B.

[1] = molecular target: T2, Cynomolgus CD3 epsilon protein (cynomolgus monkey, UniProt Q95LI5 22-117); experiment: ELISA on coated cynomolgus CD3 epsilon protein
T2 construct: extracellular domain; The method names a bought protein (Acro # CDE-05226), the result names W331-cynoProl.ECD.His; also called W331-cynoProl.ECD.His; Acro # CDE-05226; not shown: His tag by the construct's name
T2 sequence (looked up): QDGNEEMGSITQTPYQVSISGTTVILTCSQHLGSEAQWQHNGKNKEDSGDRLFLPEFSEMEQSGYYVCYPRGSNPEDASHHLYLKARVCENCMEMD
Procedure: The binding of the CD3×CD19 bispecific antibody to cynomolgus CD3 were tested by protein binding ELISA. 96-well high protein binding ELISA plates (Nunc MaxiSorp, ThermoFisher, Thermo-442404) were coated overnight at 4° C. with 100 ul of 1 μg/ml Cynomolgus CD3 epsilon protein (Acro, # CDE-05226) in Carbonate-bicarbonate buffer (20 mM Na2CO3, 180 mM NaHCO₃, PH9.2). All wells were washed one time with 300 μL per well of PBS/0.5% Tween-20 (v/v). The wells were then blocked for one hour at room temperature with 200 μL per well of PBS/2% BSA (BOVOGEN, # BSAS) and washed three times with 300 μL per well of PBS/0.5% Tween-20 (v/v). For the primary antibody binding, CD3×CD19 bispecific antibody serially diluted in PBS/2% BSA were added to the relevant wells and incubated at room temperature for two hours. Plates were washed three times like before prior to the addition of 100 ul of 100 ng/ml secondary antibody Goat-anti-human IgG Fc-HRP (Bethyl, # A80-304P). Plates were incubated at room temperature for one hour, followed by six washes as described above. […] The extent of bispecific antibody binding to cynomolgus CD3 was determined by measuring the OD450 absorbance using the SpectraMax® M5e microplate reader. […]

T1 sequence (P07766 23-207): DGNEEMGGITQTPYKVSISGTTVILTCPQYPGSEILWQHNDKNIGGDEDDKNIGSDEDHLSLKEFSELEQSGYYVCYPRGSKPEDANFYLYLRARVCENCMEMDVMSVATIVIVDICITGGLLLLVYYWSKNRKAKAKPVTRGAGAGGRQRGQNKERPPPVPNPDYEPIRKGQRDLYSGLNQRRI

B1: W3438-T3U4.E17-1.uIgG4.SP (bispecific antibody)
light 1: DIVMTQSPDSLAVSLGERATINCKSSQSLLNSRTRKNYLAWYQQKPGQPPKLLIYWASTRQSGVPDRFSGSGSGTDFTLTISSLQAEDVAVYYCTQSHTLRTFGGGTKVEIKPDIQNPDPAVYQLRDSKSSDKSVCLFTDFDSQTQVSQSKDSDVYITDKCVLDMRSMDFKSNSAVAWSQKSDFACANAFQNSIIPEDTFFPSPESS
heavy 1: QVQLVQSGAEVKKPGSSVKVSCKASGFAFTDYYIHWVRQAPGQGLEWMGWISPGNVNTKYNENFKGRVTITADKSTSTAYMELSSLRSEDTAVYYCARDGYSLYYFDYWGQGTLVTVLEDLKNVFPPEVAVFEPSEAEISHTQKATLVCLATGFYPDHVELSWWVNGKEVHSGVCTDPQPLKEQPALQDSRYALSSRLRVSATFWQNPRNHFRCQVQFYGLSENDEWTQDRAKPVTQIVSAEAWGRYGPPCPPCPAPEFLGGPSVFLFPPKPKDTLMISRTPEVTCVVVDVSQEDPEVQFNWYVDGVEVHNAKTKPREEQFNSTYRVVSVLTVLHQDWLNGKEYKCKVSNKGLPSSIEKTISKAKGQPREPQVYTLPPCQEEMTKNQVSLWCLVKGFYPSDIAVEWESNGQPENNYKTTPPVLDSDGSFFLYSRLTVDKSRWQEGNVFSCSVMHEALHNHYTQKSLSLSLGK
light 2: DIQLTQSPSFLSASVGDRVTITCSASSTVNYMHWYQQKPGKAPKLLIYSTSNLASGVPSRFSGSGSGTEFTLTISSLQPEDFATYYCHQWSSYPYTFGQGTKLEIKRTVAAPSVFIFPPSDEQLKSGTASVVCLLNNFYPREAKVQWKVDNALQSGNSQESVTEQDSKDSTYSLSSTLTLSKADYEKHKVYACEVTHQGLSSPVTKSFNRGEC
heavy 2: QMQLVQSGPEVKKPGTSVKVSCKASGYAFTSYNMYWVRQARGQRLEWIGYIDPYNGDTTYNQKFKGRVTITRDMSTSTAYMELSSLRSEDTAVYYCLTTAYAMDYWGQGTLVTVSSASTKGPSVFPLAPCSRSTSESTAALGCLVKDYFPEPVTVSWNSGALTSGVHTFPAVLQSSGLYSLSSVVTVPSSSLGTKTYTCNVDHKPSNTKVDKRVESKYGPPCPPCPAPEFLGGPSVFLFPPKPKDTLMISRTPEVTCVVVDVSQEDPEVQFNWYVDGVEVHNAKTKPREEQFNSTYRVVSVLTVLHQDWLNGKEYKCKVSNKGLPSSIEKTISKAKGQPREPQVCTLPPSQEEMTKNQVSLSCAVKGFYPSDIAVEWESNGQPENNYKTTPPVLDSDGSFFLVSRLTVDKSRWQEGNVFSCSVMHEALHNHYTQKSLSLSLGK
notes: Bispecific, bivalent: one anti-CD3 arm with TCR constant domains and one native anti-CD19 Fab arm, IgG4 S228P Fc with knobs-into-holes; also called WBP3438; CD3×CD19 bispecific antibody; copies: 1 + 1 + 1 + 1
Kd (human CD3): 9 nM | EC50 [1]: 0.04 nM
